# Results: FireProtDB (doi:10.1016/j.jmb.2003.10.041)
# B1: Bacteriorhodopsin, P02945 (parent)
# chain: MLELLPTAVEGVSQAQITGRPEWIWLALGTALMGLGTLYFLVKGMGVSDPDAKKFYAITTLVPAIAFTMYLSMLLGYGLTMVPFGGEQNPIYWARYADWLFTTPLLLLDLALLVDADQGTILALVGADGIMIGTGLVGALTKVYSYRFVWWAISTAAMLYILYVLFFGFTSKAESMRPEVASTFKVLRNVTVVLWSAYPVVWLIGSEGAGIVPLNIETLLFMVLDVSAKVGFGLILLRSRAIFGEAEAPEPSAGDGAAATSD
# Variants of: B1
# Conditions: Halobacterium salinarum (strain ATCC 700922 / JCM 11081 / NRC-1); pH 6; 25 °C; SDS; Absorbance; sodium phosphate 10 mM; reversible: yes (90%); structure 2BRD; whole UniProt chain shown
row,Variant,ddG of mutation (higher = less stable) [kcal/mol]
1,MLELLPTAVEGVSQAQITGRPEWIWLALGTALMGLGTLYFLVKGMGVSDPDAKKFYAITTLVPAIAFTMYLSMLAGYGLTMVPFGGEQNPIYWARYADWLFTTPLLLLDLALLVDADQGTILALVGADGIMIGTGLVGALTKVYSYRFVWWAISTAAMLYILYVLFFGFTSKAESMRPEVASTFKVLRNVTVVLWSAYPVVWLIGSEGAGIVPLNIETLLFMVLDVSAKVGFGLILLRSRAIFGEAEAPEPSAGDGAAATSD [L75A],-0.5
2,MLELLPTAVEGVSQAQITGRPEWIWLALGTALMGLGTLYFLVKGMGVSDPAAKKFYAITTLVPAIAFTMYLSMLLGYGLTMVPFGGEQNPIYWARYADWLFTTPLLLLDLALLVDADQGTILALVGADGIMIGTGLVGALTKVYSYRFVWWAISTAAMLYILYVLFFGFTSKAESMRPEVASTFKVLRNVTVVLWSAYPVVWLIGSEGAGIVPLNIETLLFMVLDVSAKVGFGLILLRSRAIFGEAEAPEPSAGDGAAATSD [D51A],0.5
3,MLELLPTAVEGVSQAQITGRPEWIWLALGTALMGLGTLYFLVKGMGVSDPDAKKFYAITTLVPAIAATMYLSMLLGYGLTMVPFGGEQNPIYWARYADWLFTTPLLLLDLALLVDADQGTILALVGADGIMIGTGLVGALTKVYSYRFVWWAISTAAMLYILYVLFFGFTSKAESMRPEVASTFKVLRNVTVVLWSAYPVVWLIGSEGAGIVPLNIETLLFMVLDVSAKVGFGLILLRSRAIFGEAEAPEPSAGDGAAATSD [F67A],1
4,MLELLPTAVEGVSQAQITGRPEWIWLALGTALMGLGTLYFLVKGMGVSDPDAAKFYAITTLVPAIAFTMYLSMLLGYGLTMVPFGGEQNPIYWARYADWLFTTPLLLLDLALLVDADQGTILALVGADGIMIGTGLVGALTKVYSYRFVWWAISTAAMLYILYVLFFGFTSKAESMRPEVASTFKVLRNVTVVLWSAYPVVWLIGSEGAGIVPLNIETLLFMVLDVSAKVGFGLILLRSRAIFGEAEAPEPSAGDGAAATSD [K53A],0.3
5,MLELLPTAVEGVSQAQITGRPEWIWLALGTALMGLGTLYFLVKGMGVSDPDAKKAYAITTLVPAIAFTMYLSMLLGYGLTMVPFGGEQNPIYWARYADWLFTTPLLLLDLALLVDADQGTILALVGADGIMIGTGLVGALTKVYSYRFVWWAISTAAMLYILYVLFFGFTSKAESMRPEVASTFKVLRNVTVVLWSAYPVVWLIGSEGAGIVPLNIETLLFMVLDVSAKVGFGLILLRSRAIFGEAEAPEPSAGDGAAATSD [F55A],1.6
6,MLELLPTAVEGVSQAQITGRPEWIWLALGTALMGLGTLYFLVKGMGVSDADAKKFYAITTLVPAIAFTMYLSMLLGYGLTMVPFGGEQNPIYWARYADWLFTTPLLLLDLALLVDADQGTILALVGADGIMIGTGLVGALTKVYSYRFVWWAISTAAMLYILYVLFFGFTSKAESMRPEVASTFKVLRNVTVVLWSAYPVVWLIGSEGAGIVPLNIETLLFMVLDVSAKVGFGLILLRSRAIFGEAEAPEPSAGDGAAATSD [P50A],0.2
7,MLELLPTAVEGVSQAQITGRPEWIWLALGTALMGLGTLYFLVKGMGVSDPDAKKFAAITTLVPAIAFTMYLSMLLGYGLTMVPFGGEQNPIYWARYADWLFTTPLLLLDLALLVDADQGTILALVGADGIMIGTGLVGALTKVYSYRFVWWAISTAAMLYILYVLFFGFTSKAESMRPEVASTFKVLRNVTVVLWSAYPVVWLIGSEGAGIVPLNIETLLFMVLDVSAKVGFGLILLRSRAIFGEAEAPEPSAGDGAAATSD [Y56A],1.3
8,MLELLPTAVEGVSQAQITGRPEWIWLALGTALMGLGTLYFLVKGMGVSDPDAKKFYAITTLVPAIAFTMYASMLLGYGLTMVPFGGEQNPIYWARYADWLFTTPLLLLDLALLVDADQGTILALVGADGIMIGTGLVGALTKVYSYRFVWWAISTAAMLYILYVLFFGFTSKAESMRPEVASTFKVLRNVTVVLWSAYPVVWLIGSEGAGIVPLNIETLLFMVLDVSAKVGFGLILLRSRAIFGEAEAPEPSAGDGAAATSD [L71A],-0.3
9,MLELLPTAVEGVSQAQITGRPEWIWLALGTALMGLGTLYFLVKGMGVSDPDAKKFYAITTLVPAIAFTMYLSMALGYGLTMVPFGGEQNPIYWARYADWLFTTPLLLLDLALLVDADQGTILALVGADGIMIGTGLVGALTKVYSYRFVWWAISTAAMLYILYVLFFGFTSKAESMRPEVASTFKVLRNVTVVLWSAYPVVWLIGSEGAGIVPLNIETLLFMVLDVSAKVGFGLILLRSRAIFGEAEAPEPSAGDGAAATSD [L74A],-0.7
10,MLELLPTAVEGVSQAQITGRPEWIWLALGTALMGLGTLYFLVKGMGVSDPDAKKFYAITTLVAAIAFTMYLSMLLGYGLTMVPFGGEQNPIYWARYADWLFTTPLLLLDLALLVDADQGTILALVGADGIMIGTGLVGALTKVYSYRFVWWAISTAAMLYILYVLFFGFTSKAESMRPEVASTFKVLRNVTVVLWSAYPVVWLIGSEGAGIVPLNIETLLFMVLDVSAKVGFGLILLRSRAIFGEAEAPEPSAGDGAAATSD [P63A],-0.1
11,MLELLPTAVEGVSQAQITGRPEWIWLALGTALMGLGTLYFLVKGMGVSDPDAKKFYAITALVPAIAFTMYLSMLLGYGLTMVPFGGEQNPIYWARYADWLFTTPLLLLDLALLVDADQGTILALVGADGIMIGTGLVGALTKVYSYRFVWWAISTAAMLYILYVLFFGFTSKAESMRPEVASTFKVLRNVTVVLWSAYPVVWLIGSEGAGIVPLNIETLLFMVLDVSAKVGFGLILLRSRAIFGEAEAPEPSAGDGAAATSD [T60A],1
